Residue numbers refer to the chain shown, from its start.
Tests used:
Test in all cases: cAMP activity assay (pCRE β-galactosidase reporter), transfected HEK293T cells
Assay type in all cases: cell-based
RXFP1 G45A = target: T1, RXFP1 G45A (Homo sapiens, UniProt Q9HBX9, G67A); conditions: construct G45A, ±s.e.m.
T1 construct: transiently transfected human embryonic kidney (HEK) 293T cells expressing full-length RXFP1 and mutants; expressed in transfected cells; host or cells: HEK293T
T1 sequence (Q9HBX9 23-757 G67A limits assumed): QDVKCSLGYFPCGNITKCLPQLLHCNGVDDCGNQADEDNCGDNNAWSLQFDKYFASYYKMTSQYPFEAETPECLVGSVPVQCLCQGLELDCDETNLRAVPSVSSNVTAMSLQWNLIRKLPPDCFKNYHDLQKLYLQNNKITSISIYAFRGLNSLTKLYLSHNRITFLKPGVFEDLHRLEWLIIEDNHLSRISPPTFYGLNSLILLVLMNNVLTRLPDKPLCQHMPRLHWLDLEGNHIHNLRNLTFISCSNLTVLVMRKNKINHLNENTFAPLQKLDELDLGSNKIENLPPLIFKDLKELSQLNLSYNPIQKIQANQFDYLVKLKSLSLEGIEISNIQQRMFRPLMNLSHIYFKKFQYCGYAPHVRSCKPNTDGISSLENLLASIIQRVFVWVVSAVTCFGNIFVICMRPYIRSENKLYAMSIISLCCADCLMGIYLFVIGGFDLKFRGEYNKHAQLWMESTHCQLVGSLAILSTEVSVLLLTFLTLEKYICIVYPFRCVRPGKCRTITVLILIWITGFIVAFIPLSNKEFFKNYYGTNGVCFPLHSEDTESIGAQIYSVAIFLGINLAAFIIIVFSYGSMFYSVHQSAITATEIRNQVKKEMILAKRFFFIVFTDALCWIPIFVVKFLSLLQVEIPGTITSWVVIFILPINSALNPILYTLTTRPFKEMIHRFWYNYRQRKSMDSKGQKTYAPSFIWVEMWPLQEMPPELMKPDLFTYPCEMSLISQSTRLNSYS
Experimental: (§1) Media was aspirated and plates stored frozen at −80 °C overnight. […] H2 relaxin dilutions were prepared in minimal media containing 1% DMSO. Positive and negative control stimulations were achieved by incubation with 5 μM Forskolin and minimal media/1% DMSO, respectively. Plates were developed by 10 min of incubation in 25 μl of lysis buffer 1 (100 mM Na2HPO4, pH 8.0, 0.2 mM MgSO4 0.01 mM MnCl2); a further 10 min of incubation in 100 μl of buffer 2 (100 mM Na2HPO4, pH 8.0, 2 mM MgSO4, 0.1 mM MnCl2, 0.5% Triton X-100, 40 mM β-mercaptoethanol); then to each well 25 μl of the β-galactosidase substrate, chlorophenol red-β-D-galactopyranoside (Roche) was added. All incubation steps were conducted with orbital shaking. Color-change was monitored and readings were taken on a Benchmark Plus Microplate Reader (Bio-Rad) at 570 nm. A minimum of three separate experiments were performed, each of them in triplicate, and data were pooled and presented as percentages of the maximum response induced by 5 μM Forskolin±s.e.m.

RXFP1 D51A = target: T2, RXFP1 D51A (Homo sapiens, UniProt Q9HBX9, D51A/D73A); conditions: construct D51A, ±s.e.m.
T2 construct: cells expressing full-length RXFP1 and mutants; expressed in transfected cells; host or cells: HEK293T
T2 sequence (Q9HBX9 23-757 D51A/D73A limits assumed): T1 sequence (Q9HBX9 23-757 G67A limits assumed) with D29A, A45G, D51A
Experimental: as §1

RXFP1 S47L48-AA = target: T3, RXFP1 S47L48-AA (Homo sapiens, UniProt Q9HBX9, L70A/S69A); conditions: construct S47L48-AA, ±s.e.m.
T3 construct: expressed in transfected cells; host or cells: HEK293T
T3 sequence (Q9HBX9 23-757 S69A/L70A limits assumed): T1 sequence (Q9HBX9 23-757 G67A limits assumed) with A45G, S47A, L48A
Experimental: as §1

[1] = percentage of maximum response to 5 μM Forskolin

H2 relaxin: two-chain 6-kDa peptide hormone structurally related to insulin; recombinant human gene-2 H2 relaxin provided by Corthera
H2 relaxin pEC50 (RXFP1 G45A; cAMP reporter): 7.48±0.57 (4)
H2 relaxin Emax (RXFP1 G45A; [1]): 135.94±31.68 (4) %
H2 relaxin pEC50 (RXFP1 D51A; cAMP reporter): 11.01±0.56 (3)
H2 relaxin Emax (RXFP1 D51A; [1]): 96.5±4.0 (3) %
H2 relaxin pEC50 (RXFP1 S47L48-AA; cAMP reporter): 11.07±0.17 (3)
H2 relaxin Emax (RXFP1 S47L48-AA; [1]): 120.9±10.9 (3) %

Reference: article PMC4837482, “The complex binding mode of the peptide hormone H2 relaxin to its receptor RXFP1” (Nature Communications, 2016)
